The target in experiment [1] is T1, ARG2 (Homo sapiens, UniProt P78540).
T1 sequence (P78540 23-354): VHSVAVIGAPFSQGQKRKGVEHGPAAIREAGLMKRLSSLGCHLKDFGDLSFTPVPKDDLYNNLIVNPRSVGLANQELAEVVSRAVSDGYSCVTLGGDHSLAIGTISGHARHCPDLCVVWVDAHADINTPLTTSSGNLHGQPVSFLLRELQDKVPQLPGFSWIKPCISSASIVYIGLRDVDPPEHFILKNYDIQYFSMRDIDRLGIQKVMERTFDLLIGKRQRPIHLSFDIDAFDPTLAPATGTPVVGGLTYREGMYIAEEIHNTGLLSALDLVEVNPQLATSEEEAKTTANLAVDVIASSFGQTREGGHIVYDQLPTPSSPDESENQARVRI
Put plainly: T cell proliferation assay (BrdU, 96 hours) with exogenous ARG2, improved variant IgGs. Type of experiment: cell-based. Also noted: human ARG2 (aa23-354); His10 (C); made in house; host or cells: E. coli BL21 (DE3). Particulars: In Presence of rhARG2; hIgG1; top conc 2 μM; n=2. As to the method: This assay served to provide evidence of improved functional efficacy for each affinity-matured antibody in comparison to the parent IgG, C0020187 (FIG. 12).
Lead optimisation clones were tested to an endpoint treatment time of 96 hours and the BrdU Cell Proliferation Kit (Roche, France; Cat: 11647229001) was used according to the manufacturer's instructions. R347 was used as the irrelevant control. All clones tested n=2.
Leukocyte cones underwent Ficoll Plaque (GE, Sweden; Cat: 17-1440-02) gradient separation, PBMC's were extracted and pan T cell population isolated by negative selection using the Human T Cell Enrichment Kit (Stemcell Technologies, France; Cat: 19051) according to the manufacturer's instructions.
40000 cells/well were seeded in complete growth media (RMPI 1640, 5% Human Serum Albumin) into a 96 well clear TC treated microplate (Greiner-Bio One, Germany; Cat: 655180). T cells were activated by the addition of ImmunoCult CD3/CD28 (Stemcell Technologies, France; Cat: 10971) at a dilution of 1:40 directly into wells and the plate incubated 37° C., 5% CO2 for 45 minutes. […]
(§1) Calculated data was expressed as % of control (Equation 3) and graphical plots were constructed using a four parameter fit and EC50's determined using model 205 in XLFit (IDBS, UK). […]

Experiment [2] has as its target T1, ARG2. Put plainly: T cell proliferation assay (BrdU, 72 hours) with exogenous ARG2. The class given is cell-based. As to conditions: In Absence of rhARG2. As to the method: This assay served to provide in vitro evidence of functional efficacy for each antibody.
Briefly, Leukocyte cones (NHS Blood and Transplant, Watford, UK) underwent Ficoll Plaque (GE, Sweden; Cat: 17-1440-02) gradient separation, PBMC's were extracted and pan T cell population isolated by negative selection using the Human T Cell Enrichment Kit (Stemcell Technologies, France; Cat: 19051) according to the manufacturer's instructions.
40000 cells/well were seeded in complete growth media (RMPI 1640, 5% Human Serum Albumin) into a 96 well clear TC treated microplate (Greiner-Bio One, Germany; Cat: 655180). T Cells were activated by the addition of ImmunoCult CD3/CD28 (Stemcell Technologies, France; Cat: 10971) at a dilution of 1:40 directly into wells and the plate incubated 37° C., 5% CO2 for 45 minutes.
To determine EC50's of test antibodies, a dilution series was created in sterile TBS at 8× the final assay concentration was added to the assay plate containing cells. Plate was incubated for 30 minutes at 37° C., 5% CO2.
ARG2 was added to relevant wells of the plate at a final concentration of 15 μg/ml. The equivalent volume of ARG2 vehicle and test antibody vehicle was added to relevant control wells. […]
as §1

B1: C0021158: anti-ARG2 antibody, second generation lead, VH SEQ ID NO: 272, VL SEQ ID NO: 277 (antibody, listed as Homo sapiens, V domains shown)
VH: EVQLLESGGGLVQPGGSLRLSCAASGFTFRYEVAAWVRQAPGKGLEWVSAISGPIPKGYYADSVKGRFTISRDNSKNTLYLQMNSLRAEDTAVYYCARLRADLGLYMDLWGRGTLVTVPS
VL: QSVLTQPPSVSAAPGQKVTISCSGSSSNIGNHYVSWYQQLPGTAPKLLIYDNSERTAGVPDRFSGSKSGTSATLGITGLQTGDEADYYCGTWDELTSNLVFGGGTKLTVL
modifications: C0021158
One may read the EC50 as the concentration giving half of the maximal effect. In the case of B1, in experiment [1], the EC50 was 157 nM and the “Maximum % Proliferation” value turned out to be 90%.

B2: C0020065: anti-ARG2 antibody, alternate lead isolation clone, VH SEQ ID NO: 2, VL SEQ ID NO: 7 (antibody, listed as Homo sapiens, V domains shown)
VH: GVNLRESGGGVVQPGRSLRLSCAASGFTFSSYAMHWVRQAPGKGLEWVAVISYDGSNKYYVDSVKGRFTISRDNSKNTLYLQMNSLRAEDTAVYYCARDSSQLWFDYWGRGTLVTVSS
VL: QSVVTQPPSVSGAPGQRVTISCTGSSSNIGTGYDVHWYQQLPGTAPKLLIYGNSNRPSGVPDRFSGSKSGTSASLAITGLQAEDEADYYCQSYDSSLSGSVVFGGGTQLTVL
modifications: C0020065
Take B2: in experiment [2], the EC50 is less than 0.8 nM and the “Maximum % Proliferation” value is 82%.

The record behind these values is patent US20220403048A1, “BINDING MOLECULES TO ARGINASE II [ARG2]” (Cancer Research Technology Limited, priority 2019, published 2022).
